{
  "source": "paper PMC6232179",
  "binders": {"B1": {"name": "COX-2 (prostaglandin endoperoxide synthase 2, PTGS2), purified His-tagged protein (enzyme)", "chain": "ANPCCSHPCQNRGVCMSVGFDQYKCDCTRTGFYGENCSTPEFLTRIKLFLKPTPNTVHYILTHFKGFWNVVNNIPFLRNAIMSYVLTSRSHLIDSPPTYNADYGYKSWEAFSNLSYYTRALPPVPDDCPTPLGVKGKKQLPDSNEIVEKLLLRRKFIPDPQGSNMMFAFFAQHFTHQFFKTDHKRGPAFTNGLGHGVDLNHIYGETLARQRKLRLFKDGKMKYQIIDGEMYPPTVKDTQAEMIYPPQVPEHLRFAVGQEVFGLVPGLMMYATIWLREHNRVCDVLKQEHPEWGDEQLFQTSRLILIGETIKIVIEDYVQHLSGYHFKLKFDPELLFNKQFQYQNRIAAEFNTLYHWHPLLPDTFQIHDQKYNYQQFIYNNSILLEHGITQFVESFTRQIAGRVAGGRNVPPAVQKVSQASIDQSRQMKYQSFNEYRKRFMLKPYESFEELTGEKEMSAELEALYGDIDAVELYPALLVEKPRPDAIFGETMVEVGAPFSLKGLMGNVICSPAYWKPSTFGGEVGFQIINTASIQSLICNNVKGCPFTSFSVPDPELIKTVTINASSSRSGLDDINPTVLLKERSTEL", "modifications": "red fluorescent tag, covalently labelled (only in the MST of Figure 4B)"}},
  "molecular_target": "His-tagged ER luminal domain of IRE1α (IRE1-NLD-His6-KDEL)",
  "assay": "SPR; IRE1-NLD amine-coupled on a CM5 chip (~1500 RU); COX-2 flowed at 0 to 10000 nM in 10 mM Hepes pH 7.4, 150 mM NaCl, 0.005% P20, 30 µl/min; BIACore T200; triplicate",
  "data": [
    {"binder": "B1", "values": [
      {"measurement": "Kd", "value": 880, "unit": "nM"}
    ]}
  ]
}
